The text below walks through data of article PMC6955338 (Proceedings of the National Academy of Sciences of the …, 2019).

Experiment [1] concerns the target mouse CD11b I-domain (moCD11b-I) (mouse) (UniProt P05555). The experiment can be described thus: BLI.
Experiment [2] deals with human CD11b I-domain (huCD11b-I) (human). The experiment can be described thus: SAXS.
For experiment [3], the target named is T1, leukocidin GH (LukGH) wild-type (Staphylococcus aureus USA300 (ST8) …).
T1 chain 1: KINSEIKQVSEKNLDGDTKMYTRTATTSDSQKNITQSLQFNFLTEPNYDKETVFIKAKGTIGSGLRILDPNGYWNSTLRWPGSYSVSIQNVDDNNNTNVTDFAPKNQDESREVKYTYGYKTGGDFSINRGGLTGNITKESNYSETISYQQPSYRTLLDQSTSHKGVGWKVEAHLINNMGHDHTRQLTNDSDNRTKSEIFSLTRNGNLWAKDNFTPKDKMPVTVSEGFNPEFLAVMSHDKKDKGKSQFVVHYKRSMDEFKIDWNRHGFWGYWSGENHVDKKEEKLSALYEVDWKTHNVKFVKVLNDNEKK
T1 chain 2: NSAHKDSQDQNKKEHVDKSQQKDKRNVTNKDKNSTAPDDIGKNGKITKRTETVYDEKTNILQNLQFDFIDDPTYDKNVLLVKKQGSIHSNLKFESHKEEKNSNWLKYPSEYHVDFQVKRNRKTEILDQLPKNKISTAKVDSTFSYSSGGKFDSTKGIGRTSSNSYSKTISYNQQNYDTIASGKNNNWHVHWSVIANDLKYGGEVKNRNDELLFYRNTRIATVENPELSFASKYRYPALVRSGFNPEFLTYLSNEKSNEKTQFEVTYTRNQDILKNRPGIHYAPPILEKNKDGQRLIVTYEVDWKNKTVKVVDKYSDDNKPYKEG
As to the kind of experiment: SAXS.

Chain of mouse CD11b I-domain (moCD11b-I) (mouse) (P05555 143-337): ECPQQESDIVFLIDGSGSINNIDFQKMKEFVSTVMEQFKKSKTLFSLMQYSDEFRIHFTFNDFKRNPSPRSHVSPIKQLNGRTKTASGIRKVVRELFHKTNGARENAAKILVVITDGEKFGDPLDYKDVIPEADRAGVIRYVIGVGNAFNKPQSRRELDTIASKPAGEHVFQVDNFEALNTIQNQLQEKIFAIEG

LukGH^K319A (complex) had a Kd in experiment [1] of 63 nM.

Molecule “leukocidin GH (LukGH) wild-type (complex)” had a stoichiometry N in experiment [2] of 1. Moreover, the Kd in experiment [1] turned out to be 1000 nM.

B1: Fab of αLukGH-mAb#5.H1H2 (Fab, V domains shown)
VH: ELQLQESGPGLVKPSETLSLTCTVSGGSISSGSYYWDWIRQPPGKGLEWIGNIYKSGSTYYNPSLKSRVTISVDTSKNQFSLKLSSVTAADTAVYYCARERGMHYMDVWGKGTTVTVSS
VL: DIQMTQSPSSLSASVGDRVTITCRASQSINSYLNWYQQKPGKAPKLLIYAASSLQSGVPSRFSGSGSGTDFTLTISSLQPEDFATYYCQQQFDPPFTFGGGTKVEIK
As for B1, in experiment [3], the binding result is given as “binds”.
